Experimental data from the domain aggregation screens of Martell et al. (2025).

Test: soluble fraction after stress (log2 fold change); higher = more stays soluble; pooled small domains, quantitative proteomics
Settings: stress: 75 degC
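Note: 20 min heating vs room temperature control held 20 min.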

## HMSKRIFPNEFQRNSPDAMVMLDKMNLSRINVDPLTKSLTLNGGGSVKTLLNGREVSAVEIAALSP
  soluble fraction (log2): 0.124

## HMSKSENLYSAARELIPGGVNSPVRAFTGVGGTPLFIEKADGAYLYDVDGKAYIDYVGSWGPMVLGHNHP
  soluble fraction (log2): -0.337

## HMSKSIEEIYDEAIRSLANEEYDSAKKLFSYLIDNFSDPEKLPLSLFWLGEIEFSSSNFDQSKIHYIE
  soluble fraction (log2): -0.15

## HMSKSIGEALKEERRSLGLTQEQFIKGIISESFYSKVERGKNEIVAVDLLKILAANNISEEEFLSKLN
  soluble fraction (log2): -0.694

## HMSKSPELMEKIKEFAEGYFRENGETPSNKTIAGAMGMGRSTVYYYLVDMAQRGMISYENGVISTEKIRKL
  soluble fraction (log2): -1.4

## HMSKTDYKILYSDLNREDAKQLSLLLEDKKIPYQTSEDGKTIKIPEGMVNRFRMEVATMGVNF
  soluble fraction (log2): -0.0248

## HMSKTKDVLVQLMAERGLTQSDIARALSVRPQAVQQWVSGKTRPTGKNLEALAEFLQLPPAVIVHGP
  soluble fraction (log2): -0.282

## HMSKTQVKSVLDDIKGIGVVRRKALIKHFNDIEAIKAAQLAELKAVAGMDSKSAQSVYDFFHK
  soluble fraction (log2): -0.453

## HMSKYERVYTGSEINVNHLKSQLEDAGISSVVRNDHESAIRAGFGSDYDRGVLLFVEKDNLLRAKHIIEKT
  soluble fraction (log2): 0.126

## HMSKYLAFTVKKNDELLPFIEKALNGISHTKAKAILANGGAMVNKNTITQYNYPLTPGMTVEISRH
  soluble fraction (log2): -0.5

## HMSLDLNENEKTIFDIIQNKKTIRLSELKIEAGLSNKGWDKAMKSLTKQGLAKVVKTEDQLTVKLL
  soluble fraction (log2): -0.499

## HMSLEDNEVIQRMKVILDRFDEETAVDRTTAFKAVLDHIGKMDAESKTLEHMAEMLEALLDKVLEE
  soluble fraction (log2): -1.09

## HMSLGPNAYGKPATALNILRETVMGKELFDHAFKTYSKRWMFKHPSPEDFFRTMEDASAVDLDWFWR
  soluble fraction (log2): 0.178

## HMSLGSQEYSIGFRNGDSTYHYIDKALKELAYEGVIDELSTQWFGSSRAVDFPSQKDALSELGYIA
  soluble fraction (log2): -0.123

## HMSLGSSLFHARKKSGLTQEAVAEKLGVSRQTISKWETNETLPDIRQSKGLAMLYHMTLDELIE
  soluble fraction (log2): -0.422

## HMSLGTDVVPDFTGKGIKEAKTEFAAYSEGELYIIGEGEKVKEQFPLPGEKVNKNSDLILYV
  soluble fraction (log2): 0.0388

## HMSLIDLLQLNRKSKKLTLMNLVEMTGLSYGKVYRIFNGGIDKPTPDSLKLLAKALQLDYSYLFHKAGYL
  soluble fraction (log2): -0.468

## HMSLIEQKSQIPLVQGGQRVDKVAAALFTDFSRAELTGWIQQGALTLDGAVVKPKYKVLGGEWLYLRASQS
  soluble fraction (log2): -1.75

## HMSLNIIEITAKKEINELKSFNIIYFNFDKNNSIYEYKISEREKKEILEIEKIIKNSDNVTNYEIRYSF
  soluble fraction (log2): -1.31

## HMSLNQRIKEARIKMGYTQEQLGNLIGVAKTTISGYEKNREPDAATIGLIIDALKVDANFLFQ
  soluble fraction (log2): -2.06

## HMSLNSELIARIENLIASIEDKRSWGYGFAESVLGQVQAGATLSPRQLEIIAKLEKENSYSVQLERQ
  soluble fraction (log2): -1.16

## HMSLPALSAEEQKIVDALHGTPKGVDDIIAETGISSGALLRSLTMLELKKVIVRLPGNRIAPK
  soluble fraction (log2): -1.53

## HMSLPDREVVLETSSDSYYHFKTDHFQRQITYSAVRNAPVRLVTISAERAFEVISLNRRGERPEHLE
  soluble fraction (log2): -3.24

## HMSLQEISDLISQAERADQEQLKEVLKQLHQVESGNQPMSKGFLSSALSTLNKYPALITSIGQLLFKLAT
  soluble fraction (log2): -0.217

## HMSLSEGVSADVVADVQARLMELGYMDEDDPDGNFSESTRIAVEHFQQQAGLPVTGTVDKATLDALNSPD
  soluble fraction (log2): 0.264

## HMSLSQLGLTPRQTDVLALLLKGQPNKLIARELGLSVETVKDHVAAVLRALNVSSRTQAVIAVSQMLQ
  soluble fraction (log2): -2.13

## HMSLSVEESYKLLDISPSAGDEEITKKFRLLALKYHPDKNRSKIEWANNIMSRLNQAYSVIMSSRFESNAE
  soluble fraction (log2): -1.6

## HMSLTTKSVEETLGITRQTLHNWIKEGLLPAPKKDFRNWYIWSDEDLENLRNIIEQKTLINNKKQAV
  soluble fraction (log2): 0.203

## HMSMANKKDFILDTAQKLFMEQGFDQTSISQILEATQIARGTLYYYFSSKEEIMDAIIERTIEQ
  soluble fraction (log2): -0.966

## HMSMDYYNILGVNRNASTGEIKKAYKRASMQHHPDRGGNSDEFIKVQQAYDTLSDNHKRQAYDNP
  soluble fraction (log2): -0.0907

## HMSMDYYSTLGVSKTASASDIKKAYRKLAMANHPDKGGDSAKFAKITEAYDVLKDPQKRNNYDQFGTA
  soluble fraction (log2): 0.0592

## HMSMEQAKAEEIEKLGDNAPERLQAAALFAEKFFPQDVMDAVYKITETADGVRAIEHIMQTVK
  soluble fraction (log2): -1.11

## HMSMISLPNFVGKDIETVKAWAKENGITLIINKVEDSAKKDTVISQNPTNSDYSKILKGSAFTVNIAKE
  soluble fraction (log2): 0.0389

## HMSMRILNHTVVKILKRYRIATDEQLQPLLDEAERSGRSLQDVVLDAKLVSETELTKLFADYAD
  soluble fraction (log2): -3.66

## HMSMVGNIEKILVTGESKKSSELLAGRTENNRVVNFTGEKVLIGSMVNVRIEEVFPNSLGGSYLPS
  soluble fraction (log2): -0.133

## HMSNAIDDAVEKVISENLDLAKERGLQSMGPLMGLVMKELGGTADGKAVSEALRRKISEISD
  soluble fraction (log2): 0.413

## HMSNEDAYIKLRNGFLATLSEADLLLFTLREEGKTQKEIADQLGYKTHSAVSKRLQTMRGQFEGYLKTQ
  soluble fraction (log2): -1.03

## HMSNEIIFNQKSITRFLMNPENNSPMIYPLELGHEMKVIKKNNDWLNVTDEKTGLNGWVISDDFGLTKPEG
  soluble fraction (log2): -0.118

## HMSNETLFEFFEKNISQLTPTLVDNINRSLAVHSKKNVKLAIMIAAKSNVRNWNYISAILNRWEKE
  soluble fraction (log2): -2.4
